B1: toripalimab Fab, wild type (Fab, V domains shown)
VH: QGQLVQSGAEVKKPGASVKVSCKASGYTFTDYEMHWVRQAPIHGLEWIGVIESETGGTAYNQKFKGRVTITADKSTSTAYMELSSLRSEDTAVYYCAREGITTVATTYYWYFDVWGQGTTVTVSS
VL: DVVMTQSPLSLPVTLGQPASISCRSSQSIVHSNGNTYLEWYLQKPGQSPQLLIYKVSNRFSGVPDRFSGSGSGTDFTLKISRVEAEDVGVYYCFQGSHVPLTFGQGTKLEIK
notes: toripalimab Fab heavy chain; toripalimab stands in PDB 6JBT; toripalimab Fab light chain; also called WT; source: Brevibacillus, culture supernatant (ammonium sulfate precipitate); not shown: 6xHis, C-terminal, kept; 6xHN, C-terminal, kept
B2: toripalimab Fab L.S97Y (Fab, V domains shown)
VH: B1 VH
VL: B1 VL with S97Y
notes: as the heavy chain of Sm3; light chain of Sm3 with this change; numbers count from the chain's first residue; source: Brevibacillus, culture supernatant (ammonium sulfate precipitate); not shown: 6xHis, C-terminal, kept; 6xHN, C-terminal, kept
B3: toripalimab Fab H.T103A (Fab, V domains shown)
VH: B1 VH with T103A
VL: B1 VL
notes: heavy chain of Sm3 with this change; numbers count from the chain's first residue; as the light chain of Sm3; source: Brevibacillus, culture supernatant (ammonium sulfate precipitate); not shown: 6xHis, C-terminal, kept; 6xHN, C-terminal, kept
B4: toripalimab Fab H.T102A (Fab, V domains shown)
VH: B1 VH with T102A
VL: B1 VL
notes: as for B3
B5: toripalimab Fab L.Q95Y (Fab, V domains shown)
VH: B1 VH
VL: B1 VL with Q95Y
notes: as for B2
B6: toripalimab Fab H.D31A (Fab, V domains shown)
VH: B1 VH with D31A
VL: B1 VL
notes: as for B3
B7: toripalimab Fab H.W110A (Fab, V domains shown)
VH: B1 VH with W110A
VL: B1 VL
notes: as for B3
B8: toripalimab Fab L.H31A (Fab, V domains shown)
VH: B1 VH
VL: B1 VL with H31A
notes: as for B2
B9: toripalimab Fab H.H35A (Fab, V domains shown)
VH: B1 VH with H35A
VL: B1 VL
notes: as for B3
B10: toripalimab Fab H.E52A (Fab, V domains shown)
VH: B1 VH with E52A
VL: B1 VL
notes: as for B3
B11: toripalimab Fab H.G100Y (Fab, V domains shown)
VH: B1 VH with G100Y
VL: B1 VL
notes: as for B3
B12: toripalimab Fab H.D113A (Fab, V domains shown)
VH: B1 VH with D113A
VL: B1 VL
notes: as for B3
B13: toripalimab Fab H.D113Y (Fab, V domains shown)
VH: B1 VH with D113Y
VL: B1 VL
notes: as for B3
B14: toripalimab Fab H.Y108A (Fab, V domains shown)
VH: B1 VH with Y108A
VL: B1 VL
notes: as for B3
B15: toripalimab Fab L.Y37A (Fab, V domains shown)
VH: B1 VH
VL: B1 VL with Y37A
notes: as for B2
B16: toripalimab Fab H.T102Y (Fab, V domains shown)
VH: B1 VH with T102Y
VL: B1 VL
notes: as for B3
B17: toripalimab Fab H.E33Y (Fab, V domains shown)
VH: B1 VH with E33Y
VL: B1 VL
notes: as for B3
B18: toripalimab Fab H.Y111A (Fab, V domains shown)
VH: B1 VH with Y111A
VL: B1 VL
notes: as for B3
B19: toripalimab Fab H.H35Y (Fab, V domains shown)
VH: B1 VH with H35Y
VL: B1 VL
notes: as for B3
B20: toripalimab Fab H.T103Y (Fab, V domains shown)
VH: B1 VH with T103Y
VL: B1 VL
notes: as for B3
B21: toripalimab Fab L.E39A (Fab, V domains shown)
VH: B1 VH
VL: B1 VL with E39A
notes: as for B2
B22: toripalimab Fab H.I51Y (Fab, V domains shown)
VH: B1 VH with I51Y
VL: B1 VL
notes: as for B3
B23: toripalimab Fab L.G96A (Fab, V domains shown)
VH: B1 VH
VL: B1 VL with G96A
notes: as for B2
B24: toripalimab Fab H.F112A (Fab, V domains shown)
VH: B1 VH with F112A
VL: B1 VL
notes: as for B3
B25: toripalimab Fab H.I101A (Fab, V domains shown)
VH: B1 VH with I101A
VL: B1 VL
notes: as for B3
B26: toripalimab Fab L.L101H (Fab, V domains shown)
VH: B1 VH
VL: B1 VL with L101H
notes: as for B2
B27: toripalimab Fab H.I101Y (Fab, V domains shown)
VH: B1 VH with I101Y
VL: B1 VL
notes: as for B3
B28: toripalimab Fab L.L101W (Fab, V domains shown)
VH: B1 VH
VL: B1 VL with L101W
notes: as for B2
B29: toripalimab Fab L.H31Y (Fab, V domains shown)
VH: B1 VH
VL: B1 VL with H31Y
notes: as for B2

This passage reports Kd, koff and kon results from PMC10663500, “High-throughput analysis system of interaction kinetics for data-driven antibody design” (Scientific Reports, 2023).

Positions count from the first letter of the chain named. Bounds are passed on as bounds.

The target of one assay is T1, human programmed cell death protein 1 (hPD-1) C93S (aa 24-167) (Homo sapiens, UniProt Q15116, C93S).
T1 construct: made as a fusion with a TEV site and human Fc; the Fc was cut off with TEV protease; source: Expi293F, purified (Protein A, TEV cleavage of Fc, SEC; monomer fractions); not shown: Fc (human), C-terminal, cleaved
T1 sequence (Q15116 24-167 C93S): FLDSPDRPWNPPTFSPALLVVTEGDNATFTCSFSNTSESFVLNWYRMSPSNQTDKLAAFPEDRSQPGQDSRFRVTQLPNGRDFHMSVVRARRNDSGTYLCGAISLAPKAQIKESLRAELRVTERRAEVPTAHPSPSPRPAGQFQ
Nature of the assay: SPR; Carterra LSA; Fab from the ammonium sulfate precipitate of the culture supernatant immobilised on a NiHC200M chip; hPD-1 (1-1024 nM) or mPD-1-Fc (4-1024 nM) as analyte, fourfold dilution series, no regeneration; HBS-EP pH 7.4, 25 °C; medians over the spots of a construct, KD = koff/kon. The note with it: one partner purified. The procedure, abridged: (§1)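 On a Carterra LSA at 25 °C, duplicate captures of Fabs were made on a NiHC200M chip; the Fabs came from Brevibacillus culture supernatants, were precipitated with ammonium sulfate and were redissolved in HBS-EP. Fourfold series of human PD-1 (1–1024 nM) or mouse PD-1-Fc (4–1024 nM) were passed over without regeneration, with 10 min association and 5 min dissociation. Binders that were not confirmed were assigned kon 10^3 […] and koff 10^−2 s^−1. The kdka model, run with slow- or fast-dissociation settings and keeping the better fit, gave the rates, and KD was taken as koff/kon from the median values for each construct.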
B1: the Kd is under 0.841 nM, the koff was under 1e-05 s⁻¹ and the on-rate constant (kon) came out at 11900 M⁻¹ s⁻¹.
B2 came in with an equilibrium dissociation constant (Kd) of 63.3 nM, a koff of 0.000845 s⁻¹ and an on-rate constant (kon) of 13300 M⁻¹ s⁻¹.
As to B3, the Kd was under 1.2 nM, the dissociation rate constant (koff) is under 1e-05 s⁻¹ and the kon came to 8350 M⁻¹ s⁻¹.
B4: binding was put at a Kd of 65.9 nM, the koff was found to be 0.000404 s⁻¹ and the kon stood at 6130 M⁻¹ s⁻¹.
As to B5, the Kd is 55 nM, the koff is 0.000734 s⁻¹ and the kon was found to be 13300 M⁻¹ s⁻¹.
In turn, B6 registered a Kd of under 0.861 nM, a koff of under 1e-05 s⁻¹ and a kon of 11600 M⁻¹ s⁻¹.
B7 returned a Kd of under 2.43 nM, an off-rate (koff) of under 1e-05 s⁻¹ and a kon of 4120 M⁻¹ s⁻¹.
For B8, the dissociation constant (Kd) is 57.3 nM, the dissociation rate constant (koff) amounted to 0.000589 s⁻¹ and the kon worked out at 10300 M⁻¹ s⁻¹.
Regarding B9, the dissociation constant Kd came to 2470 nM, the koff came to 0.00804 s⁻¹ and the kon came out at 3250 M⁻¹ s⁻¹.
For B10, the Kd came to 40.1 nM, the off-rate (koff) worked out at 0.000844 s⁻¹ and the kon is 21100 M⁻¹ s⁻¹.
In turn, B11 came in with a dissociation constant (Kd) of 107 nM, a koff of 0.00166 s⁻¹ and a kon of 15500 M⁻¹ s⁻¹.
With B12, the Kd is under 1.79 nM, the koff was under 1e-05 s⁻¹ and the kon was determined as 5600 M⁻¹ s⁻¹.
The corresponding values for B13 are under 1.6 nM, under 1e-05 s⁻¹ and 6230 M⁻¹ s⁻¹.
As to B14, the affinity, expressed as Kd, was 48.6 nM; the koff was 0.000235 s⁻¹; the kon was determined as 4840 M⁻¹ s⁻¹.
For B15, the Kd stood at 237 nM, the koff was 0.00432 s⁻¹ and the kon turned out to be 18300 M⁻¹ s⁻¹.
In the case of B16, binding was characterised by a dissociation constant (Kd) of 200 nM, the off-rate (koff) was determined as 0.00148 s⁻¹ and the kon came out at 7420 M⁻¹ s⁻¹.
Molecule B17 registered a dissociation constant (Kd) of 430 nM, a dissociation rate constant (koff) of 0.00629 s⁻¹ and a kon of 14600 M⁻¹ s⁻¹.
B18 displayed a Kd of 1610 nM, a koff of 0.0601 s⁻¹ and a kon of 37200 M⁻¹ s⁻¹.
Regarding B19, binding was put at a Kd of 294 nM, the koff is 0.00276 s⁻¹ and the on-rate constant (kon) came to 9390 M⁻¹ s⁻¹.
The corresponding values for B20 are under 2.91 nM, under 1e-05 s⁻¹ and 3430 M⁻¹ s⁻¹.
B21 registered a Kd of 88.4 nM, a koff of 0.000203 s⁻¹ and an on-rate (kon) of 2290 M⁻¹ s⁻¹.
Turning to B22, the dissociation constant (Kd) was 8.01 nM, the dissociation rate constant (koff) came out at 0.000297 s⁻¹ and the kon turned out to be 37000 M⁻¹ s⁻¹.
Consider B23, for which the equilibrium dissociation constant (Kd) was 372 nM, the koff amounted to 0.00516 s⁻¹ and the kon came out at 13900 M⁻¹ s⁻¹.
As to B24, the dissociation constant Kd stood at 6.2 nM, the off-rate constant (koff) was 2.72e-05 s⁻¹ and the on-rate (kon) came out at 4390 M⁻¹ s⁻¹.
The corresponding values for B25 are 107 nM, 0.000592 s⁻¹ and 5550 M⁻¹ s⁻¹.
In the same order, the values of B26 are 60.6 nM, 0.00111 s⁻¹ and 18400 M⁻¹ s⁻¹.
With B27, binding was characterised by a dissociation constant (Kd) of 54.5 nM, the off-rate constant (koff) is 0.000227 s⁻¹ and the on-rate constant (kon) was 4170 M⁻¹ s⁻¹.
As to B28, binding was put at a Kd of 237 nM, the dissociation rate constant (koff) worked out at 0.0322 s⁻¹ and the kon amounted to 136000 M⁻¹ s⁻¹.
For the molecule B29, the Kd came out at 17.2 nM, the koff amounted to 0.000663 s⁻¹ and the on-rate (kon) is 38600 M⁻¹ s⁻¹.

In the next assay the target is T2, mouse programmed cell death protein 1 Fc fusion protein (mPD-1-Fc), mPD-1 C60S (aa 25-167) (Mus musculus, UniProt Q02242, stabilised).
T2 construct: not cleaved; source: Expi293F, purified (Protein A, SEC; dimeric fraction); not shown: Fc (human), C-terminal, kept
Described as above. Conditions: one partner purified. The procedure, abridged: as §1
For B6, the Kd worked out at 204 nM, the off-rate constant (koff) turned out to be 0.00913 s⁻¹ and the association rate constant (kon) was found to be 44700 M⁻¹ s⁻¹.
